Laboratory results: paper PMC11256085

Target: EnfB, ThiF-like adenylyltransferase (TLAT) (Enterococcus faecium strain FDAARGOS_397 (methods); E. faecalis FDAARGOS_397 (results))

“EnfA with Trp18 substituted by Ala (peptide)” showed a conversion of the EnfA variant by EnfB (in vitro enzyme assay, LC-MS) of 2.1%.
